Measurements: IntAct's records for PubMed 18250304

B1: Endothelial transcription factor GATA-2 (Homo sapiens), P23769 (parent)
chain: MEVAPEQPRWMAHPAVLNAQHPDSHHPGLAHNYMEPAQLLPPDEVDVFFNHLDSQGNPYYANPAHARARVSYSPAHARLTGGQMCRPHLLHSPGLPWLDGGKAALSAAAAHHHNPWTVSPFSKTPLHPSAAGGPGGPLSVYPGAGGGSGGGSGSSVASLTPTAAHSGSHLFGFPPTPPKEVSPDPSTTGAASPASSSAGGSAARGEDKDGVKYQVSLTESMKMESGSPLRPGLATMGTQPATHHPIPTYPSYVPAAAHDYSSGLFHPGGFLGGPASSFTPKQRSKARSCSEGRECVNCGATATPLWRRDGTGHYLCNACGLYHKMNGQNRPLIKPKRRLSAARRAGTCCANCQTTTTTLWRRNANGDPVCNACGLYYKLHNVNRPLTMKKEGIQTRNRKMSNKSKKSKKGAECFEELSKCMQEKSSPFSAAALAGHMAPVGHLPPFSHSGHILPTPTPIHPSSSLSFGHPHPSSMVTAMG

Variants of: B1
Settings: with cbp_human CREBBP

Row | effect of a mutation on the interaction | Variant
1 | increasing interaction | L359V
